According to patent US20110059095A1 (Regeneron, published 2011):

T1: full length mouse PAR-2 (mouse, UniProt P55086 26-399)
T1 construct: also called 293/D9/mPAR-2rec cells
T1 chain: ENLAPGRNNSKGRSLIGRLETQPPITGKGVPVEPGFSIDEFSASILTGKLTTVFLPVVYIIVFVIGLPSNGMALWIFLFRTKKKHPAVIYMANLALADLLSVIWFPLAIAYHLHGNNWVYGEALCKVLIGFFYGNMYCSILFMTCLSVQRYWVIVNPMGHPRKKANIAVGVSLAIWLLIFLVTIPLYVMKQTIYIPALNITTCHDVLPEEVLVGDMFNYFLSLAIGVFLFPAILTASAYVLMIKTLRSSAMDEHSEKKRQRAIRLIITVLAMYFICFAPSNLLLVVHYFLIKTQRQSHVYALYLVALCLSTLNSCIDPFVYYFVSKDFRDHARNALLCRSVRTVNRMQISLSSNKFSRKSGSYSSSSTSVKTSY

T2: Peptide B (human PAR-2), unbiotinylated (Human)
T2 construct: also called Peptide B No Biotin
T2 peptide: SLIGKVDGTSHVTG

B1: H4H588N (antibody, human IgG4, V domains shown)
VH: EVQLLESGGGLVQPGGSLRLSCAASGFTFSSYAMTWVRQAPGKGLYWVSAISGGRGSAYYADSVKGRFTISRDNSKNTLYLQMNSLRAEDTAVYYCAKEGDSGYDLAYWGRGTLVTVSS
VL: DIQMTQSPSSLSASVGDRVTITCRARQGISNNLAWLQQKPGKAPKSLIYAASSLQSGIPSKFSGSGSGTYFTLTISSLQPEDFATYYCQQYKSSPLTFGGGTKVEIK
notes: also called H2M588N variable regions
B2: H4H583P (antibody, human IgG4, V domains shown)
VH: QVQLVESGGGVVQPGMSLRLSCTASGFTFRRYGMHWVRQAPGKGLEWVAVIWYDGSNKYYADSVKGRFTITRDNSKNTLYLQMNSLRAEDTAIYFCASEITIGDWFDPRGQGTLVTVSS
VL: AIQMTQSPSSLSASVGDRVTITCRASQGIRNDLGWFQQKPGKVPKLLIYAASTLHSGVPSRFSGSGFGTDFTLTISSLQPEDFATYYCLQDFNYPLTFGGGTKVEIK
notes: also called H1H583P variable regions
B3: H4H581P (antibody, human IgG4, V domains shown)
VH: QVQLVESGGGVVQPGRSLRLSCVASGFTFSRYGIHWVRQAPGKGLEWVIVISYDGINKYYADSVKGRFTISRDNSKNTVYLQMNSLRAEDTAVYYCAKGDFWSGYFDYWGQGTLVTVSS
VL: DIVMTQTPLSSPVTLGQPASISCRSSQSLVHSDGNTYLSWLHQRPGQPPRLLIYKISNRFSGVPDRFSGSGAGTDFTLQISRVEAEDVGIYYCMQATQFPTFGGGTKVEIK
notes: also called mAb H4H581P; H1H581P variable regions

Assays:
[1] = molecular target: T1, full length mouse PAR-2; experiment: MSD cell binding
Method in brief: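 Antibodies, two-fold dilutions from 100 nM to 0.098 nM, bound for 1 h at room temperature to HEK293/D9 cells stably expressing human or mouse PAR-2, detected by sulfo-tagged anti-human IgG electrochemiluminescence. Parental 293/D9 signal was subtracted; EC50 and Bmax came from sigmoidal dose-response fits.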

[2] = molecular target: T2, Peptide B (human PAR-2), unbiotinylated; experiment: SPR, antibody captured
Protocol: Equilibrium dissociation constants (KD values) for antigen binding to selected purified PAR-2 antibodies were determined by surface kinetics using a real-time surface plasmon resonance biosensor assay. Antibody was captured on either a rabbit anti-mouse IgG polyclonal antibody (GE Healthcare, Piscataway, N.J.) surface or a goat anti-human IgG polyclonal antibody (Jackson Immuno Research Lab, West Grove, Pa.) surface created through direct amine chemical coupling to a BIACORE™ CM5 sensor chip to form a captured antibody surface. […] Antigen-antibody binding and dissociation were monitored in real time at room temperature. Kinetic analysis was performed to calculate KD and half-life of antigen/antibody complex dissociation (Table 10). For those antibodies where no T_{1/2} value is shown, steady state analysis was used to calculate the KD value. NB: no binding observed under current experimental conditions. ND: not determined.

[3] = molecular target: T3, Peptide F (monkey PAR-2), N-terminal biotinylated (Monkey (Macaca mulatta), N-terminal biotin via G4S linker); experiment: SPR, antibody captured
T3 construct: also called Peptide F N-Term

[4] = molecular target: T4, full length human PAR-2 (human, UniProt P55085 26-397); experiment: cell-based or functional assay
[5] = molecular target: T2, Peptide B (human PAR-2), unbiotinylated; experiment: SPR, antibody captured
[6] = molecular target: monkey PAR-2 (monkey); experiment: cell-based or functional assay
[7] = molecular target: T4, full length human PAR-2; experiment: cell-based or functional assay; remark: listed apart in the source
[8] = molecular target: rat PAR-2 (rat, UniProt Q63645 37-397); experiment: cell-based or functional assay
Chain of rat PAR-2 (Q63645 37-397): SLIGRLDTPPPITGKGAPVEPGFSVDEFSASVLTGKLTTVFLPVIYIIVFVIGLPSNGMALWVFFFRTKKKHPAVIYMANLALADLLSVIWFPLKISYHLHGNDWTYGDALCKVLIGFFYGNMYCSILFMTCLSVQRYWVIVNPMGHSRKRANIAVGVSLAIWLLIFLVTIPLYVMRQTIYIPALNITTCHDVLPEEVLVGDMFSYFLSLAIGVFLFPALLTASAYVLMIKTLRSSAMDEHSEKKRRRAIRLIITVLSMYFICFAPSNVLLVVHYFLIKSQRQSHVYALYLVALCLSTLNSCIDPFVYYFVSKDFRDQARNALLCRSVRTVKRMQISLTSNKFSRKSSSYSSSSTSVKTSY

T4 sequence (P55085 26-397 G138A limits assumed): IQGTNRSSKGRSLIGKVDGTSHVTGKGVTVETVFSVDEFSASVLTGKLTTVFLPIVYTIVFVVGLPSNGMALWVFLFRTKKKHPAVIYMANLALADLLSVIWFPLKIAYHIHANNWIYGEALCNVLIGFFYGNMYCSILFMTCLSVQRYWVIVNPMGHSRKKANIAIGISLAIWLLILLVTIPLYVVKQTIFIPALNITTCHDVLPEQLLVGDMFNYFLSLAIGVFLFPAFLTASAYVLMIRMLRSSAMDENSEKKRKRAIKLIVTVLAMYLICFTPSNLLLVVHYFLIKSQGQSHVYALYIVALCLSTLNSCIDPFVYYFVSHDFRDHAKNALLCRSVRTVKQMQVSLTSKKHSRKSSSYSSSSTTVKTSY
T3 sequence (peptide, as listed by the source): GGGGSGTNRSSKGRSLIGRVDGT

Row | Binder | binding result [1] | Kd [2] | T1/2 [2] | Kd [3] | T1/2 [3] | IC50, calcium mobilization FLIPR, 100 nM Trypsin [4] | Bmax [1] | EC50 [1] | binding result [5] | H4H581P IC50, NF-kB-luciferase, Bovine Factor Xa [6] | H4H581P IC50, NF-kB-luciferase, Human Kallikrein 5 [6] | H4H581P IC50, NF-kB-luciferase, Human Kallikrein 14 [6] | H4H581P IC50, NF-kB-luciferase, Human Pancreatic Trypsin [6] | H4H581P IC50, NF-kB-luciferase, Bovine Factor Xa [7] | H4H581P IC50, NF-kB-luciferase, Human Factor Xa [7] | H4H581P IC50, NF-kB-luciferase, Human Kallikrein 5 [7] | H4H581P IC50, NF-kB-luciferase, Human Kallikrein 14 [7] | H4H581P IC50, NF-kB-luciferase, Human Pancreatic Trypsin [7] | H4H581P IC50, NF-kB-luciferase, Tryptase [7] | H4H581P IC50, NF-kB-luciferase, Human Pancreatic Trypsin [8]
1 | B1 | no binding (tested: 100 nM to 0.098 nM antibody) | 84 nM | 9 min | 7.1 nM | 24 min | 29.5 nM |  |  |  |  |  |  |  |  |  |  |  |  |  | 
2 | B2 |  |  |  |  |  |  | 7220 MSD Unit | 9.28 nM | no binding (tested: 15.6 to 250 nM peptide) |  |  |  |  |  |  |  |  |  |  | 
3 | B3 |  |  |  |  |  | 55 nM |  |  |  | 0.9 nM | 11 nM | 11.6 nM | 5.4 nM | 2.5 nM | 1.1 nM | 0.9 nM | 1.2 nM | 1.9 nM | 3.5 nM | 700 nM
